# Test results: patent publication US20140242083A1 (Hoffmann-La Roche, published 2014)
# T1: Construct 1 (CSPG repeat 15 of human MCSP with the natural transmembrane domain) (human, UniProt Q6UVK1 2044-2246)
# T1 construct: Expressed on HEK-EBNA cells; contains the original transmembrane region; also called MCSP repeat 15 construct
# T1 sequence: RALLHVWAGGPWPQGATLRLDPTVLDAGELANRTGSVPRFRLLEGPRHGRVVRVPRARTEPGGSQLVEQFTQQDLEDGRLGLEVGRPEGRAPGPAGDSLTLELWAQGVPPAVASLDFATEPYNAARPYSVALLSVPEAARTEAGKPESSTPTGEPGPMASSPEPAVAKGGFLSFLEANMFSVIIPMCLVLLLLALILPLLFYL
# T2: cynomolgus MCSP D3 domain expression construct (C-terminal part, N-terminal FLAG-tag) in HEK-EBNA cells (cynomolgus, UniProt Q6UVK1 1582-2224 (human entry), limits assumed)
# T2 construct: Tested by flow cytometry on transfected cells; the membrane anchor is not described; also called cynomolgus construct; cynomolgus antigen
# T2 chain: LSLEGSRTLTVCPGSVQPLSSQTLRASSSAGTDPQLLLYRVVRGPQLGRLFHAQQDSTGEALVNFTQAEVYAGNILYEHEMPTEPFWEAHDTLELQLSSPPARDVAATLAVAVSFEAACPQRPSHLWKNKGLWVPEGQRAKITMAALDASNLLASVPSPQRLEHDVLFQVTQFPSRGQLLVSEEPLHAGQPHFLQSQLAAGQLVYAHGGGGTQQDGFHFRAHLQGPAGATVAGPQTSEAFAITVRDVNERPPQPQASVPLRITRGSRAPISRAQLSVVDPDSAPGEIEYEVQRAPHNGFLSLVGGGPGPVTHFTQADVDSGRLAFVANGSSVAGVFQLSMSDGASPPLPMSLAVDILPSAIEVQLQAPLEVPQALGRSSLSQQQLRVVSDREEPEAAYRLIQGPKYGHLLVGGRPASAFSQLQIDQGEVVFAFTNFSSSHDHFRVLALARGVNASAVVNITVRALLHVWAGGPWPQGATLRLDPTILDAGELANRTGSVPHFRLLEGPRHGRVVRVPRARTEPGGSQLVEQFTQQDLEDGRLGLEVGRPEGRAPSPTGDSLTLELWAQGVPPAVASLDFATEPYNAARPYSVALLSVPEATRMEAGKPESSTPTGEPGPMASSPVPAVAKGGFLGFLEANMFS
# T3: human MCSP D3 domain expression construct (C-terminal part, N-terminal FLAG-tag) in HEK-EBNA cells (human, UniProt Q6UVK1 1582-2224, limits assumed)
# T3 construct: 'A similar construct' to the cynomolgus one; it is not clear whether the signal peptide and FLAG-tag are part of it; also called corresponding human expression construct; human counterpart
# T3 sequence: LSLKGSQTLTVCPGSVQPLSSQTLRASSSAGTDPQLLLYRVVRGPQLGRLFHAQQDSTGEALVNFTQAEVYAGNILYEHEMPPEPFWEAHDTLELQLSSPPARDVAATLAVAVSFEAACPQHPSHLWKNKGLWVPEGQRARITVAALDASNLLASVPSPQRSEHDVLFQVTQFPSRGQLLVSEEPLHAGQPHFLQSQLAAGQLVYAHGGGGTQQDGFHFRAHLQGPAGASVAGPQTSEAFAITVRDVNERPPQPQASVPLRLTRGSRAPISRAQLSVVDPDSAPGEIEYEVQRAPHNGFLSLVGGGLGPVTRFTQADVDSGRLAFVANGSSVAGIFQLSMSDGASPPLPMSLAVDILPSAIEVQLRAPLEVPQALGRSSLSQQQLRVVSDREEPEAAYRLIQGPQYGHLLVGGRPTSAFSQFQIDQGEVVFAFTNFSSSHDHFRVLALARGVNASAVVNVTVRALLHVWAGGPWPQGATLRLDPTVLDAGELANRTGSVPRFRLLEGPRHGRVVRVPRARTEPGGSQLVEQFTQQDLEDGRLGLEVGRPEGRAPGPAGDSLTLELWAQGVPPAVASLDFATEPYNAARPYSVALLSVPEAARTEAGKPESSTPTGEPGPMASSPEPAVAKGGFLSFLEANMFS
# T4: Construct 4 (CSPG repeat 12-15 of human MCSP) (human, UniProt Q6UVK1 1702-2246)
# T4 construct: Expressed on HEK-EBNA cells; contains the original transmembrane region
# T4 sequence: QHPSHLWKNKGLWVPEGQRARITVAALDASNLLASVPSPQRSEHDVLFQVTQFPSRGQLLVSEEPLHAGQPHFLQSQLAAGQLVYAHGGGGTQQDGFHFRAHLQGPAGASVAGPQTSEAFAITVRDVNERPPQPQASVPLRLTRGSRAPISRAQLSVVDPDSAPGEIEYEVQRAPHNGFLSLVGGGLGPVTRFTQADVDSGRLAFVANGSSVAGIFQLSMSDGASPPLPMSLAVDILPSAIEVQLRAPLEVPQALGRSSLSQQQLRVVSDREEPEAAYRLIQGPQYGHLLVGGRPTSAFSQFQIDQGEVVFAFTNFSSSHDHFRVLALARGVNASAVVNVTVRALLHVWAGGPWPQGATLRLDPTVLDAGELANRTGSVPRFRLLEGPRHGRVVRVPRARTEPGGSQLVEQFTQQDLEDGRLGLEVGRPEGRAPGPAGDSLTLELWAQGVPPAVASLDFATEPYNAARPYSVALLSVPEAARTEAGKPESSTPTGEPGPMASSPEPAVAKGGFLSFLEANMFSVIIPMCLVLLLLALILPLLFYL
# B1: chimeric antibody LC007 (antibody, human IgG1, kappa, V domains shown)
# VH: EVQLQESGPGLVKPSQSLSLTCSVTGYSITSGYYWNWIRQFPGNKLEWMGYITYDGSNNYNPSLKNRISITRDTSKNQFFLKLNSVTTEDTATYYCADFDYWGQGTTLTVSS
# VL: DIVLTQSPSSLSASLGDRVTISCSASQGIRNYLNWYQQRPDGTVKLLIYYTSSLHSGVPSRFSGSGSGTDYSLTISNLEPEDIATYYCQQYSKLPWTFGGGTKLEIKR
# notes: all such entries are written under the chimeric antibody; also called LC007 antibody; LC007 wt
# Experiments:
# [1] = biological target: T5, human MCSP (melanoma chondroitin sulfate proteoglycan) on melanoma cells (human, UniProt Q6UVK1 30-2322); assay: FACS titration on A375 melanoma cells, FITC anti-human IgG Fc secondary antibody
# T5 construct: Native MCSP on the human melanoma lines Colo38, A2058 and A375; also called surface MCSP; CSPG4
# Method: (§1) Binding activity was determined by the following method. Target cells were detached from culture flask with cell dissociation buffer, counted and checked for viability. Cells were resuspended and adjusted to 1.111×10⁶ (viable) cells/ml in PBS-0.1% BSA. 180 μl of this suspension were transferred to each well (200,000 cells/well) in a round bottom 96-well-plate, centrifuged for 4 min, at 400 g, and resuspended. 20 μl of antibody dilutions in PBS-0.1% BSA (from 10 μg/ml to […]) were added to each well. The samples were centrifuged for 4 min, at 400 g, and resuspended. Secondary antibody, FITC-conjugated AffiniPure F(ab′)2 fragment goat anti-human IgG Fcg Fragment Specific (Jackson Immuno Research Lab #109-096-098)), was added and the sample centrifuged for 4 min, at 400 g, and resuspended. Fluorescence was measured in flow cytometer (e.g. FACS Canto II). Antibody 9.2.27, described in Morgan A C Jr, Galloway D R, Reisfeld R A. Hybridoma. 1981; 1(1):27-36.; GenBank Accession Numbers: GI:20797193 and GI:20797189 for light and heavy chain respectively, was used as a reference (FIG. 2). Human melanoma cell-lines Colo38, A2058, and A375 were used. Giacomini et al. 1985 (for Colo38). Marquardt H, Todaro G J. J Biol. Chem. 1982 May 10; 257(9):5220-5 (for A2058). Geiser M, Schultz D, Le Cardinal A, Voshol H, Garcia-Echeverria C. Cancer Res. 1999 Feb. 15; 59(4):905-10 (for A375).
# [2] = biological target: T1, Construct 1 (CSPG repeat 15 of human …); assay: FACS titration of LC007 on HEK-EBNA cells transfected with the construct; mock-transfected cells as control
# [3] = biological target: T2, cynomolgus MCSP D3 domain expression …; assay: flow cytometry titration of LC007 on HEK-EBNA cells expressing the construct; untreated EBNA cells as control
# [4] = biological target: T3, human MCSP D3 domain expression …; assay: as above
# [5] = biological target: T5, human MCSP (melanoma chondroitin …); assay: FACS titration on Colo38 melanoma cells, FITC anti-human IgG Fc secondary antibody
# Method: as §1
# [6] = biological target: T5, human MCSP (melanoma chondroitin …); assay: FACS titration on A2058 melanoma cells, FITC anti-human IgG Fc secondary antibody
# Method: as §1
# [7] = biological target: T4, Construct 4 (CSPG repeat 12-15 of human …); assay: FACS titration of LC007 on HEK-EBNA cells transfected with the construct; mock-transfected cells and isotype as controls
# T5 sequence (Q6UVK1 30-2322 limits assumed): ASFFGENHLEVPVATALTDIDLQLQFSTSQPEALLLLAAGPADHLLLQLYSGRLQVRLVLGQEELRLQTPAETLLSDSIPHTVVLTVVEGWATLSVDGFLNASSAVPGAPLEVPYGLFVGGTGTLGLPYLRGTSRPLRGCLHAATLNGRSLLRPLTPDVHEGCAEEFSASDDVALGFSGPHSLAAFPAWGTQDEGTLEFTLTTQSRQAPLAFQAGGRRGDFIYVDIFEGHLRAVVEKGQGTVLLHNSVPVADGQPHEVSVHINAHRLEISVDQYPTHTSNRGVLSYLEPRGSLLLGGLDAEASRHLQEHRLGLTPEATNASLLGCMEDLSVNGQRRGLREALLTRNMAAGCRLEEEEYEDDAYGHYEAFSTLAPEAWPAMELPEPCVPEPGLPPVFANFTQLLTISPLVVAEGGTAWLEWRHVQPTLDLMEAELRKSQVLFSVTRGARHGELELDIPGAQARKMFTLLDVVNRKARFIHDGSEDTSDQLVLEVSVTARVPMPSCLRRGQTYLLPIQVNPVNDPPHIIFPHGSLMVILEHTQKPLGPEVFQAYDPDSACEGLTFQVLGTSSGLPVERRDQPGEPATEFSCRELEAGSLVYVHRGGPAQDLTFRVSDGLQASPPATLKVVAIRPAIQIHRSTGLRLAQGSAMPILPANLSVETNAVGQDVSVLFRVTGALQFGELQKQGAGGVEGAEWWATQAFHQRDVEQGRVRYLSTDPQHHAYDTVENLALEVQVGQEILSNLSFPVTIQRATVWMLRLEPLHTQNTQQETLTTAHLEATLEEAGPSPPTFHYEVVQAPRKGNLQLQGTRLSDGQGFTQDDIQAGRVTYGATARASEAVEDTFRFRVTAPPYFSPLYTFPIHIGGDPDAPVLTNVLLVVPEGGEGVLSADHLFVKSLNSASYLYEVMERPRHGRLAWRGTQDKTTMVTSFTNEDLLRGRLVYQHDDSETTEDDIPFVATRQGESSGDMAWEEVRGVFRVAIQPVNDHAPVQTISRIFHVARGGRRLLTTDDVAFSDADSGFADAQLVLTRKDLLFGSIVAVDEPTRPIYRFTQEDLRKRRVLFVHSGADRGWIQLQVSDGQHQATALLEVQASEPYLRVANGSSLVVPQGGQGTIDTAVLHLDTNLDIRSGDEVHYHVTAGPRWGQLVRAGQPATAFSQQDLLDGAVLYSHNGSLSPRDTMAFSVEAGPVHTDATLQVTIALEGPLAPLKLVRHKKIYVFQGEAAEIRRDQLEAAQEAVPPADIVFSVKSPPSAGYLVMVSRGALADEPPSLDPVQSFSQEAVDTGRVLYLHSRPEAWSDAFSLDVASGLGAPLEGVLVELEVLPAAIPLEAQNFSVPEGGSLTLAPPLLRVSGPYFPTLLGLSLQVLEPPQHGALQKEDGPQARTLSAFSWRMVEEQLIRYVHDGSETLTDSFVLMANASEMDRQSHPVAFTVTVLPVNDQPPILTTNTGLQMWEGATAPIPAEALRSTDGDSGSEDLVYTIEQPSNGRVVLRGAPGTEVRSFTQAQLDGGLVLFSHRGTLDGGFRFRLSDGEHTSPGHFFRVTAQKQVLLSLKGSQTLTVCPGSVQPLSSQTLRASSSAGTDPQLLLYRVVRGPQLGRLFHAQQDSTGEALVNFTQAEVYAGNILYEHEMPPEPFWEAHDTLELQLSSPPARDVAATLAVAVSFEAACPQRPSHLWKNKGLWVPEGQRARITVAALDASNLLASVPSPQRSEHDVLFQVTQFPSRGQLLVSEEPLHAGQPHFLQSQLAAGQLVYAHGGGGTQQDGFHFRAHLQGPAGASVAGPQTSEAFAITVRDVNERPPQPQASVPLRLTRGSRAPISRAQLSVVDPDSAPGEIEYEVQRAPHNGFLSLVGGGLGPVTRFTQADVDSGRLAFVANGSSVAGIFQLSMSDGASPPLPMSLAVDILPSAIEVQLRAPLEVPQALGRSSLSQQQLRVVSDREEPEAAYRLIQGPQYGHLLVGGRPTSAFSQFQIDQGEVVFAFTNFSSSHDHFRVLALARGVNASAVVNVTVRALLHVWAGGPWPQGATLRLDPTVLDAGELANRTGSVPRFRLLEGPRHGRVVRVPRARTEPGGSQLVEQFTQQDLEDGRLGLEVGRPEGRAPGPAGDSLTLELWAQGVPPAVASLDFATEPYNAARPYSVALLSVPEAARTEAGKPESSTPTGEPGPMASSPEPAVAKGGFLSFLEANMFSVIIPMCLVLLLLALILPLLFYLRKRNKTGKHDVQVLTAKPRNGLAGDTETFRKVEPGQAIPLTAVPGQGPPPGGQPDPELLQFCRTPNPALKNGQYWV
binder,measurement,setting,value
B1,EC50 (read off the curve),[1],~0.05 µg/mL
same,binding result,[2],no binding (tested: 5 ug/ml)
same,EC50 (read off the curve),[3],~0.1 µg/mL
same,EC50 (read off the curve),[4],~0.08 µg/mL
same,EC50 (read off the curve),[5],~0.05 µg/mL
same,EC50 (read off the curve),[6],~0.03 µg/mL
same,EC50 (read off the curve),[7],~0.3 µg/mL
